Data on one sequence can be found in paper PMC8557468, “Evolution-Based Protein Engineering for Antifungal Peptide Improvement” (Molecular Biology and Evolution, 2021).

In one series the test system is mouse erythrocytes. As to the kind of experiment: Hemolytic assay. The class given is cell-based. To be noted: 50 μM peptide, 37 °C, 15 min, absorbance 570 nm; n = 3. The procedure: Hemolysis of mouse erythrocytes by peptides was assayed according to the standard method ([Gao et al. 2009]). In brief, the cells were incubated with various concentrations of peptides (6.25, 12.5, 25, or 50 μM) at 37 °C for 15 min. Absorbance was measured at 570 nm with the SpectraMax i3x Multi-Mode microplate reader (Molecular Devices). The percentage of hemolysis was determined as (Apep−Ablank)/(Atot−Ablank)×100. Ablank and Apep were evaluated in the absence or presence of peptides and 100% hemolysis (Atot) was obtained in the presence of 1% Triton X-100. Meucin-18 ([Gao et al. 2009]) was used positive control.

The conditions of series [1]: n = 3. On the procedure:
To assess serum stability, peptides were incubated in fresh mouse serum for 0, 12, and 24 h at 37 °C, respectively. Residual activities were measured by inhibition zone assays against C. albicans B16. For thermal stability assay, E15K was incubated at 50 °C for 1–5 days, 80 °C or 100 °C for 5 min. CD analysis and inhibition zone assay were used to evaluate a potential impact of heating on the structure and function of the peptide.

Positions of bridges follow the written chain, without caps; N, C: chain ends. No end group written: not given here.

As to “DVKSGHYKGPCYHDKNCNGVCRDEGYKSGHCSRWGGACWCDT (disulfide 11-31, 17-38, 21-40) [E15K]”, the “hemolysis on mouse erythrocytes” value with mouse erythrocytes is listed as “no detectable hemolysis”. Besides, in series [1] (fresh mouse serum, 37 °C, 0, 12 and 24 h, residual activity by inhibition zone against C. albicans B16, 1.0 nmol), the “serum stability (residual antifungal activity)” value was “retained its complete antifungal activity”. Further, in series [1] (in water at 50 °C for 1–5 days or 80–100 °C for 5 min, CD spectra and inhibition zone assay), the “thermal stability (activity and structure after heating)” value was “its activity and structure were not obviously changed”.
